Results taken from the nanobody polyreactivity screen of Harvey et al. (2022).

test: yeast display, Sf9 membrane polyspecificity reagent, FACS + sequencing; frameworks hold sequencing errors
In short: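 After 36–48 hours of galactose induction, yeast (Saccharomyces cerevisiae BJ5465) displaying a synthetic nanobody library were stained at 4 °C for 1 hour with 10% biotinylated, detergent-solubilized Sf9 membrane reagent. Streptavidin microbeads enriched the stained cells before FACS sorting into low and high (top ~1%) gates on anti-HA and streptavidin fluorescence. Each clone's polyreactivity label reflects its gate of origin.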

| Sequence | polyreactivity (PSR sort gate) |
| --- | --- |
| QFQLVESGGGLVQAGGSLRLSCAASGYTFRYYSMGWYRQATGKERELVAAISRSGGSTYYADSVKGRFTISRDYAKNTVYLQMYSLKPEDTAVYYCAADYSYRTRGNRYRLDYWGQGTQVTVSS | high polyreactivity |
| QVQLVESGGGLVQAGGSLRLSCAASGFTFYWYDMGWYRQAPGKERELVSTISTGGGTNYADSVKGRFTISRDNAKNTVYLQMNSLKPEDNAVYYCAADGSAGYQWGYDFEGDYWGQGTEVTVSS | high polyreactivity |
| QVQLVESGGGLVQAGGSLRLSCAASGFIFGGNAMGWYRQAPGKVRELVAAITARSGSTYYADSVKGRFTISRDNAKNTVYLQMNSLKPEDTAVYYCAKGSLGSTRYYYWGQGTQVTVSS | low polyreactivity |
| QVQLVESGGGLVQAGGSLRLSCAASGFTLRRNAMGWYRQAPGKERELVAAISSSGSTYYADSVKGRFTISRDNAKNTVYLQMNSLKPEDTAVYYCAASATYKVRGGYWGQGTQVTVSS | high polyreactivity |
| QVQLVESGGGLVQAGGSLRLSCAASGFTFRANAMGWYRQAPGKERELVAVITGSGGRTYYADSVKGRFTISRDNAKNTVYLQMNSLKPEDTAVYYCNASGRKTNPYDYWGQGTQVTVSS | high polyreactivity |
| QFQLVESGGGLVQAGGSLRLSCAASGSTFIYNTMGWYRQAPGKERELVATIRRSGGITYYADSVKGRFTISRDNAKNTVYLQMNSLKPEDTAVYYCNAKPNRYSAKIVQYDSWGQGTQVTVSS | low polyreactivity |
| QVQLVESGGGLVQAGGSLRLSCAASGIIFDEYAMGWYRQAPGKERELVAAISSRGTNTYYADSVKGRFTISRDHAKNTVYLQMNSLKPEDTAVYYCAARRPPVTRHFGYWGQGTQVTVSS | high polyreactivity |
| QVQLVESGGGLVQAGGSLRLSCAASGRTFYWYTMGWYRQAPGKERELVAAITYRAGSTYYADSVKGRFTISRDNAKNTVYLQMNSLKPEDTAVYYCNADPPPEYYPDKDNYWGQGTQVTVSS | low polyreactivity |
| QVQLVESGGGLVQAGGSLRLSCAASGSTFHINAMGWYRQAPGKERELVADINWSGGSTYYADSVKGRFTISRDNAKNTVYLQMNSLKPEDTAVYYCAADVGVFTYSPYDAGEHDYWGQGTQVTVSS | low polyreactivity |
| QVQLVESGGGLVQAGGSLRLSCAASGFIFYDYDMGWYRQAPGKERELVAAITYSGGSTYYADSVKGRFTISRDNAKNTVYLQMNSLKPEDTAVYYCAAVKSRYAEAVDYYYWGLGTQVTVSS | low polyreactivity |
| QVQLVESGGGLVQAGGSLRLSCAASGSIFRRYAMGWYRQAPGKESELVAAITWGGGRTYYADSVKGRFTISRDNAKNTVYLQMNSLKPEDTAVYYCNAERSVYASGKSYLYDYWGQGTQVTVSS | high polyreactivity |
| QVQLVESAGGLVQAGGSLRLSCAASGRIFRYYAMGWYRQAPGKERELFAAISRSGASTYYADSVKGRFTISRDNAKNTVYLQMNSLIPEDTAVYYCAAGYWPGYSQTYRGGYWGQCTQVTVSS | high polyreactivity |
| QVQLVESGGGLVQAGGSLRISCAASGRTFAFYAMGRYRQAPGKERELVACISSSGDRTYYADSVKGRFTISRDNAKNTVYLQMNSLKPEDTAVYYCAARWRYTYYYWGQGTQVTVSS | high polyreactivity |
| QVQLVESGGGLVQAGGSLRLSCAASGITFVQYAMGWYRQAPGKERELVAAIRRGGSTSYADSVKGRFTISRDNAKNTVYLQMNSLKPEDTAVYYCARRYVWPITPLDVEYWGQGTQVTVSS | low polyreactivity |
| QVQLVESGGGLVQAGGSLRLSCAASGFTFGRYDMGWYRQAPGKERELVAAISSGGNTYYADSVKGRFTISRDNAKNTVYLQMNSLKPEDTAVNYCNARTSYYSRFDYWGQGTQVTVSS | high polyreactivity |
| QVQLVESGGGLVQAGGSLRLSCAASGSTFHRYAMGWYRQAPGKERELVARINGSGGSTYYADSVKGRFTISRDNSKNTVYLQMNSLIPEDTAVYYCAADGLYYTYGYDYWGQGTQVTVSS | low polyreactivity |
| QVQLVESGGGLVQAGGSLRLSCAASGLIFLHNAMGWYRQAPGKERELVAAIRDGDSTNYADSVKGRFTISRDNAKNTVYLQMNSLKPEDTAVYYCAKDPTLVAYAPGRYDYWGQGTQVTVSS | low polyreactivity |
| LVQLVESGGGLVQAGGSLRLSCAASGRIFPYYMGSYRQAPGKERELVAVKSSGDGTYYADSVKGRFTISRDNAKNTVYFQMNRLKPEDTAVYYCAADAPREYVDHYKYDDDYWGQGTQVTVSS | low polyreactivity |
| QVQLVESGGGLVQAGGSLRLSCAASGSIFAYYAMGMYRQEPGKERELVAVIRSGGSTYYADSVKGRFTISRDNAKNTVYLQMNSLKPEDTAVYYCAARSYRPTRGDYWGQGTQVTVSS | high polyreactivity |
| QVQLVESGGGLVQAGGSLRLSCAASGRTFYVYSMGWYRQAPGKERELVAAITASGGSTYYADSVKGRFTLSRDNAKNTVYLQMHSLKPEDTAVYYCAARVVTRVRGVGYNYWGHGTQVTVSS | high polyreactivity |
| QVQLVESGGGLVQAGGSLRLSCAASGSTFDPYAMGWYRQAPGKEREFVAAISGSGGSTYYADSVKGRFTISRDNAKNTVYLQMNSLKPEDTAVYYCAKDSFPWVDDDYWGQGTQVTVSS | low polyreactivity |
| QVQLVESGGGLVQAGGSLRLRCAASGSIFFRYAMGWYRQAPGKERELVANISSGGGNTYYADSVKGRFTISRDNAKNTVYLQMNSLKPEDTAVYYCARRLATRGHTYDYWGQGTQVTVSS | low polyreactivity |
| QVQLVESGGGIVQAGCSLRLSCAASGRTFSWNSMGWYRQAPGKERELVAAITYSGGNTYYADSVKGRFSISRDNAKNTVYLQMNSLKQEDTAVYYCAKFGVTGQGSWSQRMGYWGQGTQVTVSS | high polyreactivity |
| QVQLVESGGGLVQAGGSLRLSCAASGITLFHYVKGWYRQAPGKERELVADITWRGGNTFYADSVKGRFTISRDNAKNTVYLQMNSLKPEDTAVYYCAVRQAYRTRDYDYWGQGTQVTVSS | high polyreactivity |
| QVQLVESGGGLVQAGGSLRLSCAASGSIFAYYAMGWYRPAPGKERELVAAITVSGGRTNYADSVKGRFTISRDNAKNTVYLQMNSLKPEDTAVYYCAADTYSYWYARYDYWGQGTQVTVSS | high polyreactivity |
| QVQLVESGGGLVQAGGSLRLSCAASGRTFKKKVMGWYRHAPGKERELFAAISNGGSTNYADSVKGRFTISRDNSKNTDYLQMNSLKPEDTAVYDCAAYITWGGYHTPNWGYDYWGQGTQVTVSS | low polyreactivity |
| QVQLVESGGGLVQAGGSLRLSCAASGLIFSYNDMGWYRQAPGKERELVASISNGGSTNYADSVKGRFTISRDNAKNTVYLQMNSLKPEDTAVYYCAAEGALGEVYWWNVRRYYWGQGTQVTVSS | low polyreactivity |
| QVQLVESGGGLVQAGGSLRLICAASGTFYYYAMGWYRQAHGNERELVAAISTSDTSTYYADSVKGRFTISRDNAKNTVYLQMNSLKPEDTAVYYCAADTYHNFDYWGQGTQVSVSS | low polyreactivity |
| QVQLVESGGGLVQAGGSLRLSCAASGSIFIRYTLGWYRQAPGKERELVAVISRRGGSTYYADSVKGRFTISRDNAKNTVYLQMNSLNPEDTAVYYCNTTSSVRAPGSGVYYVPGFDYWGQGTQVTVSS | high polyreactivity |
| QVQLVESGVGLVQAGGSLRLSCAASGLIFRPYTMGWDRQAPGKERELVATITGSGASTNYADSVKGRFTISRDNAKNTLYLQMNSLKPEDTAVYYCKGRSYSRMYYWGQGTQVTVSS | high polyreactivity |
